These are literature values, as cited in PMC3290099.

This series concerns the target CIB1 (Homo sapiens) (UniProt Q99828).
Chain of UniProt Q99828 (Q99828 2-191): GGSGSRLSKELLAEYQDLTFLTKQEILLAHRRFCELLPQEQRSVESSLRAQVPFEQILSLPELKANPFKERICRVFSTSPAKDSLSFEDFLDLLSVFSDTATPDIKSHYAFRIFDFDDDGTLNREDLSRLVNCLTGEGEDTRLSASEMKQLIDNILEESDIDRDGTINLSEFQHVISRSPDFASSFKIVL

Take Integrin αIIb (from UniProt P08514): the Kd was 1400 nM.
